Target: N-terminal hexahistidine-tagged CrlT (Pseudomonas aeruginosa WK172)
Assay: pull-down; NHis-CrlT and untagged CrlA co-produced from pET28b-His-crlTA in E. coli BL21; Ni-NTA resin, lysis buffer 50 mM potassium phosphate pH 8.0, 300 mM NaCl; Tricine-SDS-PAGE

In the case of “untagged antitoxin CrlA (natural protein)”, the stoichiometry N was 1.
